# Results from patent publication US20250051476A1 (ABDERA THERAPEUTICS, published 2025).
# T1: human DLL3 (human, UniProt Q9NYJ7 27-492, limits assumed)
# T1 construct: also called hDLL3; Delta-like protein 3
# T1 sequence (looked up): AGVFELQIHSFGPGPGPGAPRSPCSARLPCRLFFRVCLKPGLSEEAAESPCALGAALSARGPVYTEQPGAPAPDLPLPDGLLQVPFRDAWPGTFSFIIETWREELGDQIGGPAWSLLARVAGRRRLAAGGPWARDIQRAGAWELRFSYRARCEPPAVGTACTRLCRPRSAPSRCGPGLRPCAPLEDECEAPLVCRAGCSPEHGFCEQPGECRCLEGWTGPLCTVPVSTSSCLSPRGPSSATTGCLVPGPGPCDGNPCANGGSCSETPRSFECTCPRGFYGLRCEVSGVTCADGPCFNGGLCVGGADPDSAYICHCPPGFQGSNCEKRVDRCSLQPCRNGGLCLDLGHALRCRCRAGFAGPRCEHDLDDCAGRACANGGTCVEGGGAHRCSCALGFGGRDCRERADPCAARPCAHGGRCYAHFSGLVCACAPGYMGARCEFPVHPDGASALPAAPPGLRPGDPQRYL
# T2: mouse DLL3 (mouse, UniProt O88516 25-477, limits assumed)
# T2 construct: also called mDLL3; murine DLL3
# T2 sequence (looked up): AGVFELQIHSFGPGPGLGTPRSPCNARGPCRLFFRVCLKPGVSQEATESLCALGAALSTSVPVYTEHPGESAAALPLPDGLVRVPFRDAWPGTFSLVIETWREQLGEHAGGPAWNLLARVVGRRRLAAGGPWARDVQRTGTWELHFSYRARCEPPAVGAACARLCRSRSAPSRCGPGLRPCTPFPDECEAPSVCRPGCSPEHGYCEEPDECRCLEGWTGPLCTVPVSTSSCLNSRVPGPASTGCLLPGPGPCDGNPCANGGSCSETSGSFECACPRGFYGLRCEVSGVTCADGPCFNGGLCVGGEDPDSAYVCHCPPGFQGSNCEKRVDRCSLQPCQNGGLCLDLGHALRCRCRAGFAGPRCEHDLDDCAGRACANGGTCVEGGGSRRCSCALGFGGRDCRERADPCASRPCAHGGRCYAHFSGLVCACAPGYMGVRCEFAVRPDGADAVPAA
# Columns and labels:
# human DLL3 = target: T1, human DLL3; experiment: ELISA
# mouse DLL3 = target: T2, mouse DLL3; experiment: ELISA
binding result (human DLL3),binding result (mouse DLL3),Binder
binds,no binding,"186_zu4 (Fc fusion, Humanized VHH-Fc) QVQLVESGGGLVQPGGSLRLSCAASGFDFSTYTVNWYRQAPGQEREKVARISSTGTTTNYANSAKGRFTISRDNSKNTLYLQMNSLRAEDTAVYYCAAERFDSNYWGQGTLVTVSSEPKSSDKTHTCPPCPAPEAEGAPSVFLFPPKPKDTLMISRTPEVTCVVVDVSHEDPEVKFNWYVDGVEVHNAKTKPREEQYNSTYRVVSVLTVLHQDWLNGKEYKCKVSNKALPSSIEKTISKAKGQPREPQVYTLPPSREEMTKNQVSLTCLVKGFYPSDIAVEWESNGQPENNYKTTPPVLDSDGSFFLYSKLTVDKSRWQQGNVFSCSVMHEALHNQYTQKSLSLSPG"
binds,–,"24_zu1 (Fc fusion, Humanized VHH-Fc) QVQLVESGGGLVQPGGSLRLSCAASGFTFSSYRINWFRQAPGQGLEAVASITDTGSTNYADSVKGRFTISRDNSKNTLYLQMNSLRAEDTAVYYCAAPTIAAYWGQGTLVTVSSEPKSSDKTHTCPPCPAPEAEGAPSVFLFPPKPKDTLMISRTPEVTCVVVDVSHEDPEVKFNWYVDGVEVHNAKTKPREEQYNSTYRVVSVLTVLHQDWLNGKEYKCKVSNKALPSSIEKTISKAKGQPREPQVYTLPPSREEMTKNQVSLTCLVKGFYPSDIAVEWESNGQPENNYKTTPPVLDSDGSFFLYSKLTVDKSRWQQGNVFSCSVMHEALHNQYTQKSLSLSPG"

# Second part, the binder before the results:
Binder,binding result (human DLL3),binding result (mouse DLL3)
"107_zu1 (Fc fusion, Humanized VHH-Fc) QVQLVESGGGLVQPGGSLRLSCAASDRTFSSYAVGWFRQAPGQGLEAVAAISWNGGRTLYTDSVTGRFTISRDNSKNTLYLQMNSLRAEDTAVYYCAARPAAPTRRLEYDYWGQGTLVTVSSEPKSSDKTHTCPPCPAPEAEGAPSVFLFPPKPKDTLMISRTPEVTCVVVDVSHEDPEVKFNWYVDGVEVHNAKTKPREEQYNSTYRVVSVLTVLHQDWLNGKEYKCKVSNKALPSSIEKTISKAKGQPREPQVYTLPPSREEMTKNQVSLTCLVKGFYPSDIAVEWESNGQPENNYKTTPPVLDSDGSFFLYSKLTVDKSRWQQGNVFSCSVMHEALHNQYTQKSLSLSPG",binds,–
"186_zu3 (Fc fusion, Humanized VHH-Fc) QVQLVESGGGLVQPGGSLRLSCAASGFDFSTYTVNWYRQAPGQGLEKVARISSTGTTTNYANSAKGRFTISRDNSKNTLYLQMNSLRAEDTAVYYCAAERFDSNYWGQGTLVTVSSEPKSSDKTHTCPPCPAPEAEGAPSVFLFPPKPKDTLMISRTPEVTCVVVDVSHEDPEVKFNWYVDGVEVHNAKTKPREEQYNSTYRVVSVLTVLHQDWLNGKEYKCKVSNKALPSSIEKTISKAKGQPREPQVYTLPPSREEMTKNQVSLTCLVKGFYPSDIAVEWESNGQPENNYKTTPPVLDSDGSFFLYSKLTVDKSRWQQGNVFSCSVMHEALHNQYTQKSLSLSPG",binds,no binding
"186_zu5 (Fc fusion, Humanized VHH-Fc) QVQLVESGGGLVQPGGSLRLSCAASGFDFSTYTVNWYRQAPGKEREKVARISSTGTTTNYANSAKGRFTISRDNSKNTLYLQMNSLRAEDTAVYYCAAERFDSNYWGQGTLVTVSSEPKSSDKTHTCPPCPAPEAEGAPSVFLFPPKPKDTLMISRTPEVTCVVVDVSHEDPEVKFNWYVDGVEVHNAKTKPREEQYNSTYRVVSVLTVLHQDWLNGKEYKCKVSNKALPSSIEKTISKAKGQPREPQVYTLPPSREEMTKNQVSLTCLVKGFYPSDIAVEWESNGQPENNYKTTPPVLDSDGSFFLYSKLTVDKSRWQQGNVFSCSVMHEALHNQYTQKSLSLSPG",binds,no binding
"24_zu4 (Fc fusion, Humanized VHH-Fc) QVQLVESGGGLVQPGGSLRLSCAASGFTFSSYRINWYRQAPGQGRELVASITDTGSTNYADSVKGRFTISRDNSKNTLYLQMNSLRAEDTAVYYCAAPTIAAYWGQGTLVTVSSEPKSSDKTHTCPPCPAPEAEGAPSVFLFPPKPKDTLMISRTPEVTCVVVDVSHEDPEVKFNWYVDGVEVHNAKTKPREEQYNSTYRVVSVLTVLHQDWLNGKEYKCKVSNKALPSSIEKTISKAKGQPREPQVYTLPPSREEMTKNQVSLTCLVKGFYPSDIAVEWESNGQPENNYKTTPPVLDSDGSFFLYSKLTVDKSRWQQGNVFSCSVMHEALHNQYTQKSLSLSPG",no binding,no binding
